Molecular target: human catalytic domain of MMP-14 (human)

Sequence of human N-terminal domain of tissue inhibitor of metalloproteinase-2 (domain or fragment) (P16035 27-220): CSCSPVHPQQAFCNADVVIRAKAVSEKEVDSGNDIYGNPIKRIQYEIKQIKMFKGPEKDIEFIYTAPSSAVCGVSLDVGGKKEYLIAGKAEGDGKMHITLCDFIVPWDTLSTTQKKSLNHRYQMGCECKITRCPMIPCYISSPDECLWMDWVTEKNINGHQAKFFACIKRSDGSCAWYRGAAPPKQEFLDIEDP

An IC50 of inhibition of hydrolysis of the FRET peptide substrate M-2350 (1 nM human cdMMP-14, 1 μM substrate) of 3 nM was found for “human N-terminal domain of tissue inhibitor of metalloproteinase-2 (domain or fragment)” in this work.
